# Patent US20260022151A1 (TSINGHUA UNIVERSITY, published 2026)
# B1: truncated variant P2S2 (other)
# chain: MKGGSWGGSKKTPPPVPPRTTSKGGSGGSGGSGGSKKTPPPVPPRTTSKGGSGGSGGSGGSDLNMPAYVKFNYMAEREDELSLIKGTKVIVMEKSSDGWWRGSYNGQVGWFPSNYVTEEGDSPLASGAGGSEGGGSEGGTSGATDLNMPAYVKFNYMAEREDELSLIKGTKVIVMEKSSDGWWRGSYNGQVGWFPSNYVTEEGDSPLG
# modifications: fluorescent dye label by Alexa Fluor C5 maleimide; labelled residue not stated
# B2: recombinant protein CN-P2S2-DN (designed binder)
# chain: EVQLMESGGGLVQAGGSLRLSCAASGRTFNNYAMGWFRRAPKGEREFVAAITRSGVRSGVSAIYGDSVKDRFTISRDNAKNTLYLQMNSLKPEDTAVYTCAASAIGSGALRRFEYDYSGQGTQVTVSSGGSGGSGGSGGSASMKGGSWGGSKKTPPPVPPRTTSKGGSGGSGGSGGSKKTPPPVPPRTTSKGGSGGSGGSGGSDLNMPAYVKFNYMAEREDELSLIKGTKVIVMEKSSDGWWRGSYNGQVGWFPSNYVTEEGDSPLASGAGGSEGGGSEGGTSGATDLNMPAYVKFNYMAEREDELSLIKGTKVIVMEKSSDGWWRGSYNGQVGWFPSNYVTEEGDSPLGSMGMGEVQLLESGGGLVQPGGSLRLSCAASGTFDKINNMGWYRQAPGKQRDLVAQITPGGITDYADSVKGRFTISRDNSKNTLYLQMNSLRPEDTAVYYCNAEILKRAYIDVYVNYWGQGTLVTVSS
# modifications: fluorescent dye label by Alexa Fluor C5 maleimide (Alexa 647, Alexa 561 or Alexa 546 in the imaging experiments); labelled residue not stated
# notes: MBP removed by TEV protease; Unlabelled, endotoxin-free protein was used in the apoptosis assays; also called synthetic ligand CN-P2S2-DN; recombinant ligand CN-P2S2-DN
# What was measured:
# [1] = target: T1, CXCR4-mCherry; experiment: live-cell confocal colocalisation, HEK293T cells co-expressing CXCR4-mCherry and DR5-GFP
# T1 construct: Co-expressed with DR5-GFP on transfected HEK293T cells; also called exogenous CXCR4; CXCR4 fused with an mCherry tag at the C-terminal
# T1 sequence (chain, as listed by the source limits assumed): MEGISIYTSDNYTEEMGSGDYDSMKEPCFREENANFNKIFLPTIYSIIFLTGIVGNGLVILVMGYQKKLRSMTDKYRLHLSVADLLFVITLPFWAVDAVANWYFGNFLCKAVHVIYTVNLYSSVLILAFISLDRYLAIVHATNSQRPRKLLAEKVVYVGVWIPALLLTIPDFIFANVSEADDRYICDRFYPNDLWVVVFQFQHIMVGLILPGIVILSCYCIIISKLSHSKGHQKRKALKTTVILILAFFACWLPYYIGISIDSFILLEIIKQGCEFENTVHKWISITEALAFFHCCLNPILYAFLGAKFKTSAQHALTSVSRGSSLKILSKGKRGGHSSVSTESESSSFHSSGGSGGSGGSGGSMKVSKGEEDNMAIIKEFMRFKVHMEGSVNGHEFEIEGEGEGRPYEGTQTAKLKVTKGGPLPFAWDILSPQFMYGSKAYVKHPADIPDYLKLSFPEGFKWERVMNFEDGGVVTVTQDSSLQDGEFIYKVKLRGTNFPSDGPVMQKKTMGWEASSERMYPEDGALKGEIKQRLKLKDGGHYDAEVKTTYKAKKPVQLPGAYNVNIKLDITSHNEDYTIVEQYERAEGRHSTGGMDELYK
# Procedure: (§1) HEK293T cells were seeded at a density of 5×10⁵ cells/well into a 4-well chamber 35 mm culture dish (purchased from In Vitro Scientific) and cultured at 37° C., 5% CO₂ until the cell density reached approximately 60-70% confluence. Then, plasmids pCDNA3.1-CXCR4-mCherry and pCDNA3.1-DR5-GFP were gently pipetted and mixed with Opti-MEM Medium (purchased from Invitrogen. Inc.) without antibiotics and serum in a sterile centrifuge tube, in an amount of 0.5 μg pCDNA3.1-CXCR4-mCherry and 0.5 μg pCDNA3.1-DR5-GFP per well. Lipo8000™ transfection reagent (purchased from Shanghai Bio-Tech Biotechnology Co., Ltd.) was added and gently pipetted and mixed again to obtain a plasmid solution for transfection (i.e., each 100 μl Opti-MEM Medium contained 0.5 μg of plasmids pCDNA3.1-CXCR4-mCherry and pCDNA3.1-DR5-GFP, and 1.6 μl Lipo8000). The evenly mixed plasmid solution was added dropwise to each well, gently mixed, and then cultured for 24-36 hours at 37° C., and 5% CO₂ to obtain HEK293T cells co-expressing CXCR4-mCherry and DR5-GFP.
# (§2) 200 nM CN-P2S2-DN protein or its different truncated variants P2S2-CN, P2S2. P2S2-DN (all labeled with fluorescent dye Alexa 647) were added to the above cell culture medium. HEK293T cells treated in the same manner with blank solution under the same conditions were used as negative controls. […]
# [2] = target: T2, DR5-GFP; experiment: as above
# T2 construct: Co-expressed with CXCR4-mCherry on transfected HEK293T cells; also called exogenous DR5; DR5 fused with a GFP tag at the C-terminal
# Procedure: as §1, §2
# [3] = target: endogenous DR5 receptor on human tumor cells (human, UniProt O14763 56-440); experiment: cell-based or functional assay
# [4] = target: T3, endogenous CXCR4 receptor on human tumor cells (human, UniProt P61073 1-352); experiment: FRAP and confocal imaging on SJSA-1 cells, 200 nM
# T3 construct: whole, on cells; also called CXC motif chemokine receptor 4
# T3 sequence (P61073 whole entry): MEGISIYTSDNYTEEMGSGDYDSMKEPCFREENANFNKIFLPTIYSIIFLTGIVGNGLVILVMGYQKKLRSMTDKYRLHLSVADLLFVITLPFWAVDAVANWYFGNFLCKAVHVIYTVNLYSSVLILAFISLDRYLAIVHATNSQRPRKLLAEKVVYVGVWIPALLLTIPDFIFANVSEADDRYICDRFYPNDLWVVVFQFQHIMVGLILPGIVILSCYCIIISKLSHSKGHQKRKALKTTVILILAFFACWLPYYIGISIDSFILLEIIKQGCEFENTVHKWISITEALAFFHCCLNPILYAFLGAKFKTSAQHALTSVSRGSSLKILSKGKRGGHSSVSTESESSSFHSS
# Procedure: Fluorescence recovery after photobleaching (FRAP) is an experiment commonly used to verify liquid-liquid phase separation, see, for example, Alberti, Simon et al., Journal of Molecular Biology 430(23): 4806-4820, 2018: McSwiggen, David T et al., Genes & Development 33(23-24): 1619-1634, 2019. Therefore, FRAP was performed on the same droplets as in Example 4 that contain 12.5 μM CN-P2S2-DN protein. After bleaching with 488 nm laser light at a laser intensity of 50% for 1 second, fluorescence images were taken under a NIKON A1R HD25 laser confocal microscope (purchased from Nikon, Inc.) with a 100× oil immersion objective lens. The images were analyzed and exported using NIS-Elements AR Analysis (Nikon, Inc.) and Image J (National Institutes of Health) software.
# SJSA-1 cells were treated with 200 nM CN-P2S2-DN (labeled with Alexa 561) for 4 hrs in the same manner as in Example 5, and photobleaching analysis was performed.
# [5] = target: T1, CXCR4-mCherry; experiment: time-lapse confocal imaging, HEK293T cells co-expressing CXCR4-mCherry and DR5-GFP, 200 nM
# [6] = target: T2, DR5-GFP; experiment: as above
Binder,binding result [1],binding result [2],IC50 of apoptosis induction in CXCR4/DR5 COLO-205 cells (Annexin V-FITC/PI flow cytometry) [3] [nM],IC50 of apoptosis induction in CXCR4/DR5 SJSA-1 cells (Annexin V-FITC/PI flow cytometry) [3] [nM],"apoptosis ratio in other CXCR4+/DR5+ double-positive tumor cell lines, 200 nM, 5 hr [3] [%]","apoptosis ratio, COLO-205 cells, 100 nM, 3 hr [3] [%]","apoptosis ratio, SJSA-1 tumor cells, 100 nM, 3 hr [3] [%]",binding result [4],binding result [5],binding result [6]
B1,no binding (tested: 200 nM),no binding (tested: 200 nM),,,,,,,,
B2,,,28.9,10.1,> 40,74,82.5,binds,binds,binds
